The text below walks through data of article PMC7145662, “Crystal structure of the EcoKMcrA N-terminal domain (NEco): recognition of modified cytosine bases without flipping”.

For series [1], the target named is T1, NEco (EcoKMcrA N-terminal domain) (Escherichia coli K) (UniProt P24200).
T1 sequence: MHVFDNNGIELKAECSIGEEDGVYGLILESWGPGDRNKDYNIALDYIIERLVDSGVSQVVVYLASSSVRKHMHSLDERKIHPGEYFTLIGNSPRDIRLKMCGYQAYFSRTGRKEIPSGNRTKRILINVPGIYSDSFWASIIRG
The series is described as follows: competition. Conditions: 5mC in CpG, both strands; EMSA: 10 nM 33P/32P 30 bp duplex, 5-2000 nM NEco; competition: 10 nM labeled C5mCGG, 10 nM NEco, 3-3000 nM unlabeled competitor; buffer, pH and temperature not …. For orientation: In EMSA bound probe runs differently from free probe, usually more slowly.

Series [2] has as its target T2, NEco (EcoKMcrA N-terminal domain) (Escherichia coli K, UniProt P24200 1-143).
T2 sequence: T1 sequence
The series is described as follows: competition; EMSA: 10 nM 33P/32P 30 bp duplex, 5-2000 nM NEco; competition: 10 nM labeled C5mCGG, 10 nM NEco, 3-3000 nM unlabeled competitor; buffer, pH and temperature not. Conditions: protein: recombinant.

Series [3] concerns the target T2, NEco (EcoKMcrA N-terminal domain). The description is as above. The following applies: protein: recombinant. This is another data set of the same source.
Series [4] addresses T3, NEco W31H (Escherichia coli K, UniProt P24200 1-143, W31H).
T3 sequence: T1 sequence with W31H
The series is described as above. Conditions: protein: recombinant.

Series [5] addresses T4, NEco W31A (Escherichia coli K, UniProt P24200 1-143, W31A).
T4 sequence: T1 sequence with W31A
Put plainly: EMSA; discrete complexes, unlike wt; EMSA: 10 nM 33P/32P 30 bp duplex, 5-2000 nM NEco; competition: 10 nM labeled C5mCGG, 10 nM NEco, 3-3000 nM unlabeled competitor; buffer, pH and temperature not. Conditions: protein: recombinant.

In series [6] the target is T5, NEco W31V (Escherichia coli K, UniProt P24200 1-143, W31V).
T5 sequence: T1 sequence with W31V
Put plainly: EMSA; EMSA: 10 nM 33P/32P 30 bp duplex, 5-2000 nM NEco; competition: 10 nM labeled C5mCGG, 10 nM NEco, 3-3000 nM unlabeled competitor; buffer, pH and temperature not. Conditions: protein: recombinant.

In series [7] the target is T6, NEco N119A (Escherichia coli K, UniProt P24200 1-143, N119A).
T6 sequence: T1 sequence with N119A
The description is as above. The following applies: protein: recombinant.

For series [8], the target named is T7, NEco S30V (Escherichia coli K, UniProt P24200 1-143, S30V).
T7 sequence: T1 sequence with S30V
Described as above. Conditions: protein: recombinant.

Series [9] deals with T8, NEco W31I (Escherichia coli K, UniProt P24200 1-143, W31I).
T8 sequence: T1 sequence with W31I
Described as above. The following applies: protein: recombinant.

The target of series [10] is T9, NEco S30L (Escherichia coli K, UniProt P24200 1-143, S30L).
T9 sequence: T1 sequence with S30L
The description is as above. Conditions: protein: recombinant.

Series [11] deals with T10, NEco W31L (Escherichia coli K, UniProt P24200 1-143, W31L).
T10 sequence: T1 sequence with W31L
The series is described as above. The following applies: protein: recombinant.

In series [12] the target is T11, NEco W31Y (Escherichia coli K, UniProt P24200 1-143, W31Y).
T11 sequence: T1 sequence with W31Y
Described as above. The following applies: protein: recombinant.

The target in series [13] is T12, NEco W31F (Escherichia coli K, UniProt P24200 1-143, W31F).
T12 sequence: T1 sequence with W31F
The description is as above. The following applies: protein: recombinant.

Series [14] addresses T4, NEco W31A. The description is as above. The following applies: protein: recombinant.
In series [15] the target is T13, NEco S30A (Escherichia coli K, UniProt P24200 1-143, S30A).
T13 sequence: T1 sequence with S30A
The series is described as above. Conditions: protein: recombinant.

For series [16], the target named is T14, NEco W31S (Escherichia coli K, UniProt P24200 1-143, W31S).
T14 sequence: T1 sequence with W31S
Described as above. The following applies: protein: recombinant.

Substitutions are numbered along the chain they refer to. Some results are limits rather than exact numbers.

In the case of “AGACCCACGCTCAGCGGTTCCAGATTTATC (double strand) [30 bp G5mCGG/C5mCGC]”, the binding signal (fold lower affinity than C5mCGG) in series [1] came out at 100.
“AGACCCACGCTCAGCGCTTCCAGATTTATC (double strand) [30 bp G5mCGC]”: the binding signal (fold lower affinity than G5mCGG/C5mCGC) in series [1] is greater than 25.

B1: 30 bp CTGG/C5mCGG (T:G mismatch) (dsDNA)
DNA 1: AGACCCACGCTCACTGGTTCCAGATTTATC
DNA 2: GATAAATCTGGAACCGGTGAGCGTGGGTCT
modifications: 5mC in one strand
As for B1, the binding signal in series [2] (T:G mismatch) is ~500 fold lower affinity than C5mCGG.

B2: 30 bp CTGG/C5mCAG (T:A pair) (dsDNA)
DNA 1: B1 DNA 1
DNA 2: B1 DNA 2 with G16A
modifications: 5mC in one strand
With B2, in [2], the binding signal was > 2000 fold lower affinity than C5mCGG.

B3: 30 bp C5hmCGG fully hydroxymethylated (dsDNA)
DNA 1: B1 DNA 1 with T15C
DNA 2: B1 DNA 2
modifications: 5hmC at inner C of CCGG, both strands
For the molecule B3, the binding signal in series [3] is ~40 fold lower affinity than fully methylated.

B4: 30 bp CCGG hemi-methylated (dsDNA)
DNA 1: B1 DNA 1 with T15C
DNA 2: B1 DNA 2
modifications: 5mC at inner C of CCGG, one strand
Take B4: the binding signal in [3] was ~230 fold lower affinity than fully methylated; in [4], ~35 fold lower affinity than fully methylated (same variant). In addition, the binding result in [5] is reported as “binds”.

B5: 30 bp CCGG non-methylated (dsDNA)
DNA 1: B1 DNA 1 with T15C
DNA 2: B1 DNA 2
Turning to B5, the binding signal in series [3] is ~10 fold lower affinity than hemi-methylated.

B6: 30 bp C5mCGG fully methylated (dsDNA)
DNA 1: B1 DNA 1 with T15C
DNA 2: B1 DNA 2
modifications: 5mC at inner C of CCGG, both strands
B6: the binding signal was greater than 50 fold decreased vs wt NEco in series [6]; roughly 40 fold impaired vs wt NEco in series [7]; greater than 50 fold decreased vs wt NEco in [8]; greater than 50 fold decreased vs wt NEco in series [9]; greater than 50 fold decreased vs wt NEco in series [10]; greater than 50 fold decreased vs wt NEco in [11]. For the same molecule, the binding result in series [12], in series [13], in [14], in series [15] and in [16] was “binds” throughout.
